Experimental data: US20110189730 (published 2011)

Key:
[1] = target: T1, Sin Nombre hantavirus nucleocapsid protein (N) (Sin Nombre hantavirus) (UniProt Q89462); assay: filter; settings: 5' m7G cap
T1 sequence: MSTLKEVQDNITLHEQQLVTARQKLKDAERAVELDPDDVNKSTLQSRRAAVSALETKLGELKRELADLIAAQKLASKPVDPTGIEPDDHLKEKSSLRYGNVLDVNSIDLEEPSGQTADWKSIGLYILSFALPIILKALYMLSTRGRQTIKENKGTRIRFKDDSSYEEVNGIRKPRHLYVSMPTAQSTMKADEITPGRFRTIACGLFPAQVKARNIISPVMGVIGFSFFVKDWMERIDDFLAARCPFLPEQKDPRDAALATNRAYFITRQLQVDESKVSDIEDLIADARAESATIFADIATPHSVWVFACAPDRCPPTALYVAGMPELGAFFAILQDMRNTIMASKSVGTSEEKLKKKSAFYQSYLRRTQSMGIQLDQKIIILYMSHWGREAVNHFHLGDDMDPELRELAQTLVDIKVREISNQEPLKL

[2] = target: T2, Sin Nombre hantavirus nucleocapsid protein (N) (Sin Nombre hantavirus, UniProt Q89462 SEQ:1-428); assay: filter; settings: tags: C-terminal octahistidine tag, expressed in E. coli; label: 32P-CTP
T2 sequence: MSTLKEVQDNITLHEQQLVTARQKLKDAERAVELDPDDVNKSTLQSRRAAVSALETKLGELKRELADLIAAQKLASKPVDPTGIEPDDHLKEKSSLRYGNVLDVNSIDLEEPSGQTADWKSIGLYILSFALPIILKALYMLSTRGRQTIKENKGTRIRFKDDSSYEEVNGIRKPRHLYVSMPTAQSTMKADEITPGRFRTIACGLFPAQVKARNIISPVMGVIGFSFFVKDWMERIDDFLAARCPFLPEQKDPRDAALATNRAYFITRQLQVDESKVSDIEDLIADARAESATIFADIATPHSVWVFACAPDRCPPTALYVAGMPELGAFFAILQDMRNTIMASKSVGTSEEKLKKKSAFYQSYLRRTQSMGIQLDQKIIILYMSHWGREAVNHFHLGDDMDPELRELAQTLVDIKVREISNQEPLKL

Molecule: capped TriEx 5'-terminal decamer
- Kd [1]: 130 nM

Molecule: GUCUCC (ssRNA, 5' m7G cap) [m7GUCUCC capped hexamer]
- Kd [2]: 125 nM

Molecule: GUCUCUCCCA (ssRNA, 5' m7G cap) [m7… capped decamer]
- Kd [2]: ~130 nM
